B1: 1h-99-2 40K linear PEG (other)
VH: EVQLLESGGGLVQPGGSLRLSCAASGFTFDSANMSWVRQAPGKGLEWVSWIEDTGTQTFYADSVKGRFTISRDNSKNTLYLQMNSLRAEDTAVYYCAKSPFGPLYGFDYRGQGTLVTVSS
modifications: 40K linear PEG; site of attachment not stated
B2: 1h-99-237 40K linear PEG (other)
VH: EVQLLESGGGLVQPGGSLRLSCAASGFTFDSANMSWARQAPGKGLEWVSWIEAPGVQTFYADSVRGRFTISRDNSKNTLYLQMNSLRAEDTAVYYCARSPFGPLYGFDYRGQGTLVTVSS
modifications: 40K linear PEG; site of attachment not stated
B3: 1h-99-238 40K linear PEG (other)
VH: EVQLLESGGGLVQPGGSLRLSCAASGFTFDSANMSWARQAPGKGLEWVSWIEASGVQTFYADSVKGRFTISRDNSKNTLYLQMNSLRAEDTAVYYCAKSPFGPLYGFDYRGQGTLVTVSS
modifications: 40K linear PEG; site of attachment not stated
B4: 1h-99-2 40K branched PEG (other)
VH: EVQLLESGGGLVQPGGSLRLSCAASGFTFDSANMSWVRQAPGKGLEWVSWIEDTGTQTFYADSVKGRFTISRDNSKNTLYLQMNSLRAEDTAVYYCAKSPFGPLYGFDYRGQGTLVTVSS
modifications: 40K branched PEG; site of attachment not stated
B5: 1h-239-8 40K linear PEG (other)
VL: DIQMTQSPSSLSASVGDRVTITCRASQSIYPFLEWYQQKPGKAPKLLIYFTSRLQSGVPSRFSGSGSGTDFTLTISSLQPEDFATYYCLQNVTNPATFSQGTKVEIKR
modifications: 40K linear PEG; site of attachment not stated
B6: 1h-239-891(K42C) 40K branched PEG (other)
VL: DIQMTQSPSSLSASVGDRVTITCRASRPIWPFLEWYQQKPGCAPKLLIYFTSRLRHGVPSRFSGSGSGTDFTLTISSLQPEDFATYYCLQNVANPATFSQGTKVEIKR
modifications: 40K branched PEG; engineered cysteine K42C
B7: 1h-239-891(G41C) 40K branched PEG (other)
VL: DIQMTQSPSSLSASVGDRVTITCRASRPIWPFLEWYQQKPCKAPKLLIYFTSRLRHGVPSRFSGSGSGTDFTLTISSLQPEDFATYYCLQNVANPATFSQGTKVEIKR
modifications: 40K branched PEG; engineered cysteine G41C
B8: 1h-239-891(Q3C) 40K branched PEG (other)
VL: DICMTQSPSSLSASVGDRVTITCRASRPIWPFLEWYQQKPGKAPKLLIYFTSRLRHGVPSRFSGSGSGTDFTLTISSLQPEDFATYYCLQNVANPATFSQGTKVEIKR
modifications: 40K branched PEG; engineered cysteine Q3C
B9: 1h-239-891(S9C) 40K branched PEG (other)
VL: DIQMTQSPCSLSASVGDRVTITCRASRPIWPFLEWYQQKPGKAPKLLIYFTSRLRHGVPSRFSGSGSGTDFTLTISSLQPEDFATYYCLQNVANPATFSQGTKVEIKR
modifications: 40K branched PEG; engineered cysteine S9C
B10: 1h-239-891(S60C) 30K linear PEG (other)
VL: DIQMTQSPSSLSASVGDRVTITCRASRPIWPFLEWYQQKPGKAPKLLIYFTSRLRHGVPCRFSGSGSGTDFTLTISSLQPEDFATYYCLQNVANPATFSQGTKVEIKR
modifications: 30K linear PEG; engineered cysteine S60C
B11: 1h-239-850 40K linear PEG (other)
VL: DIQMTQSPSSLSASVGDRVTITCRASRPIWPFLEWYQQKPGKAPKLLIYFTSRLQSGVPSRFSGSGSGTDFTLTISSLQPEDFATYYCLQNVSMPATFSQGTKVEIKR
modifications: 40K linear PEG; site of attachment not stated
B12: 1h-80-1 (other)
VL: DIQMTQSPSSLSASVGDRVTITCRASQRIGSNLAWYQQKPGRAPKLLIYWASLLQSGVPSRFSGSGSGTDFTLIISSLQPEDFATYYCQQTRSAPFAFGQGTKVEIKR
B13: 1h-79-1512 (other)
VL: DIQMTQSPSSLSASVGDRVTITCRASQPIGHSLGWYQQKPGKAPKLLIYWASVLLHGVPSRFSGSGSGTDFTLTISSLQPEDFATYYCQQMLRTPFTFGQGTKVEIKR
B14: 1h-79-1519 (other)
VL: DIQMTQSPSSLSASVGDRVTITCRASQPIGHSLGWYQQKPGKAPKLLIYWASLLLDGVPSRFSGSGSGTDFTLTISSLQPEDFATYYCQQMLRTPFTFGQGTKVEIKR
B15: 1h-79-20 (other)
VL: DIQMTQSPSSLSASVGDRVTVTCRASQPIGHSLAWYQQKPGKAPKLLIYWASMLQSGVPSRFSGSGSGTDFTLTISSLQPEDFATYYCQQMLRTPFTFGQGTKVEIKR
B16: 1h-79-28 (other)
VL: DIQMTQSPSSLSASVGDRVTITCRASQPIGHSLGWYQQKPGKAPKLLIYWASMLQSGVPSRFSGSGSGTDFTLTISSLQPEDFATYYCQQMLRTPFMFGQGTKVEIKR
B17: 1h-79-22 (other)
VL: DIQMTQSPSSLSASVGDRVTITCRASQPIGHSLAWYQQKPGKAPKLLIYWASMLQSGVPSRFSGSGSGTDFTLTISSLQPEDFATYYCQQMLRTPFSFGQGTKVEIKR
B18: 1h-79-24 (other)
VL: DIQMTQSPSSLSASVGDRVTITCRASQPIGHSLGWYQQKPGKAPKLLIYWASTLQSGVPSRFSGSGSGTDFTLTISSLQPEDFATYYCQQMLRTPFAFGQGTKVEIKR
B19: 1h-79-1520 (other)
VL: DIQMTQSPSSLSASVGDRVAITCRASQPIGHSLGWYEQKPGKAPKLLIYWSSVLISGVPSRFSGSGSGTDFTLTISSLQPEDFATYYCQQMLRTPFTFGQGTKVEIKR
B20: 1h-79-2 (other)
VL: DTQMTQSPSSLSASVGDRVTITCRASRPIGHSLGWYQQKPGKAPKLLIYWASMLQSGVPSRFSGSGSGTDFTLTISSLQPEDFATYYCQQMLRTPFTFGQGTKVEIKR
B21: 1h-79-809 (other)
VL: DIQMTQSPSSLSASVGDRVTITCRASQAIGHSLGWYQQKPGKAPKLLVYWASTLQSGVPSRFSGSGSGTDFTLTISSLQPEDFATYYCQQMLRTPFMFGQGTKVEIKR
B22: 1h-79-807 (other)
VL: DIQMTQSPSSLSASVGDRVTITCRASQPIGHTLGWYQQKPGKAPKLLIYWASDLIRGVPSRFSGSGSGTDFTLTISSLQPEDFATYYCQQMLRTPFMFGQGTKVEIKR
B23: 1h-79-8 (other)
VL: DIQMTQSPSSLSASVGDRVTITCRASQPIGHSLGWYQQKPGKAPKLLIYWASTLQSGVPSRFSGSGSGTDFTLTISSLQPEDFATYYCQQMLRTPFMFGQGTKVEIKR
B24: 1h-79-806 (other)
VL: DIQMTQSPSSLSASVGDRVTITCRASQPIGHSLGWYQQKPGKAPKLLIYWASMLQGGVPSRFSGSGSGTDFTLTISSLQPEDFATYYCQQMLRTPFMFGQGTKVEIKR
B25: 1h-79-31 (other)
VL: DIQMTQSPSSLSASVGDRVTITCRASQPIGHSFGWYQQKPGKAPKLLIYWASMLQSGVPSRFSGSGSGTDFTLTISSLQPEDFATYYCQQMLRTPFMFGQGTKVEIKR
B26: 1h-79-29 (other)
VL: DIQMTQSPSSLSASVGDRVTITCRASQPIGHSLGWYQQKPGKAPKLLIYWASMLQSGVPSRFSGSGSGTDFTLTISSLQPEDFATYYCQQMLRTPFAFGQGTKVEIKR
B27: 1h-79-30 (other)
VL: DIQMTQSPSSLSASVGDRVTITCRASQPIGHSFGWYQQKPGKAPKLLIYWASMLQSGVPSRFSGSGSGTDFTLTISSLQPEDFATYYCQQMLRTPFSFGQGTKVEIKR
B28: 1h-79-26 (other)
VL: DIQMTQSPSSLSASVGDRVTITCRASQPIGHSLGWYQQKPGKAPKLLIYWASMLQSGVPSRFSGSGSGTDFTLTISSLQPEDFATYYCQQMLRTPFSFGQGTKVEIKR
B29: 1h-79-21 (other)
VL: DIQMTQSPSSLSASVGDRVTITCRASQPIGHSFAWYQQKPGKAPKLLIYWASTLQSGVPSRFSGSGSGTDFTLTISSLQPEDFATYYCQQMLRTPFTFGQGTKVEIKR
B30: 1h-79-32 (other)
VL: DIQMTQSPSSLSASVGDRVTITCRASQPIGHSFGWYQQKPGKAPKLLIYWASMLQSGVPSRFSGSGSGTDFTLTISSLQPEDFATYYCQQMLRTPFAFGQGTKVEIKR
B31: 1h-79-802 (other)
VL: DIQMTQSPSSLSASVGDRVTITCRASTPIGHSLGWYQQKPGKAPKLLIYWASTLQSGVPSRFSGSGSGTDFTLTISSLQPEDFATYYCQQMLRTPFMFGQGTKVEIKR
B32: 1h-79-17 (other)
VL: DIQMTQSPSSLSASVGDRVTITCRASQPIGHSLAWYQQKPGKAPKLLIYWASTLQSGVPSRFSGSGSGTDFTLTISSLQPEDFATYYCQQMLRTPFAFGQGTKVEIKR
B33: 1h-79-808 (other)
VL: DIQMTQSPSSLSASVGDRVTITCRASQPIGHALGWYQQKPGKAPRLLIYWASTLQSGVPSRFSGSGSGTDFTLTISSLQPEDFATYYCQQMLRTPFMFGQGTKVEIKR

The binders below were run against T1, human CD28 (human, UniProt P10747 19-220) (assay: cell-based or functional assay).

Binder | DC-MLR Assay (EC50 nM) | Luciferase assay (EC50 nM)
B1 | 390 nM | 100 nM
B2 | 2 nM | –
B3 | 29 nM | 4.5 nM
B4 | 383 nM | 117 nM
B5 | 285 nM | 510 nM
B6 | 13 nM | –
B7 | 2 nM | –
B8 | 1.5 nM | –
B9 | 1.3 nM | –
B10 | 0.8 nM | –
B11 | 4 nM | 2 nM

Target: T1, human CD28
Assay: cell-based or functional assay
Remark: another data set of the same source

Binder | Luciferase assay (EC50) | MLR assay (EC50)
B12 | 366 nM | 438 nM
B13 | 19 nM | 9 nM
B14 | 97 nM | 37 nM
B15 | 1800 nM | –
B16 | 40 nM | 109 nM
B17 | 750 nM | –
B18 | 331 nM | 295 nM
B19 | 113 nM | 68 nM
B20 | 166 nM | –
B21 | 592 nM | –
B22 | 31 nM | 53 nM
B23 | 240 nM | –
B24 | 40 nM | 26 nM
B25 | 141 nM | 103 nM
B26 | 43 nM | 150 nM
B27 | 224 nM | 126 nM
B28 | 62 nM | 38 nM
B29 | 3000 nM | –
B30 | 68 nM | –
B31 | 421 nM | 48 nM
B32 | 2500 nM | –
B33 | 560 nM | –
